Assay results reported in PMC4336326, “The Nucleocapsid Protein of Human Coronavirus NL63” (PLoS ONE, 2015).

Assays:
[1] = molecular target: C-terminal domain of the HCoV-NL63 nucleocapsid protein (HCoV-NL63 (isolate Amsterdam 1)) (UniProt Q6Q1R8); experiment: SEC; CTD analysed by size exclusion chromatography; two peaks taken as dimer and monomer from retention time and SDS-PAGE; column and buffer not given
[2] = molecular target: C-terminal domain of the HCoV-NL63 nucleocapsid protein (HCoV-NL63 (isolate Amsterdam 1)) (UniProt Q6Q1R8); experiment: cross-linking; 50 ug of protein with 0.007% glutaraldehyde, 15 min at room temperature, stopped with Tris, then SDS-PAGE (Coomassie)
[3] = molecular target: the molecule itself; experiment: native MS; ESI mass spectrometry (MicroTOF-QII, positive ionization mode) of samples dialysed into 50 mM NH4HCO3, pH 7.8; masses of monomer and dimer from deconvolved spectra

Molecule | percent of the protein present as dimers [1] [%] | stoichiometry N [1] | stoichiometry N [2] | stoichiometry N [3]
C-terminal domain of the HCoV-NL63 nucleocapsid protein (from UniProt Q6Q1R8 221-340) (domain or fragment) | 40 | 2 | > 2 | 
HCoV-NL63 nucleocapsid (N) protein, complete (natural protein, also called WT; complete NL63-N protein; source: E. coli BL21, purified (Ni Sepharose, Resource Q, Superdex S75) to about 80% homogeneity) MASVNWADDRAARKKFPPPSFYMPLLVSSDKAPYRVIPRNLVPIGKGNKDEQIGYWNVQERWRMRRGQRVDLPPKVHFYYLGTGPHKDLKFRQRSDGVVWVAKEGAKTVNTSLGNRKRNQKPLEPKFSIALPPELSVVEFEDRSNNSSRASSRSSTRNNSRDSSRSTSRQQSRTRSDSNQSSSDLVAAVTLALKNLGFDNQSKSPSSSGTSTPKKPNKPLSQPRADKPSQLKKPRWKRVPTREENVIQCFGPRDFNHNMGDSDLVQNGVDAKGFPQLAELIPNQAALFFDSEVSTDEVGDNVQITYTYKMLVAKDNKNLPKFIEQISAFTKPSSIKEMQSQSSHVAQNTVLNASIPESKPLADDDSAIIEIVNEVLH |  |  |  | 2
